Here are results for one molecule from publication doi:10.1101/801027.

The target in this series is T1, Hfq (Pseudomonas putida KT2440, UniProt Q88DD3 1-86).
T1 sequence: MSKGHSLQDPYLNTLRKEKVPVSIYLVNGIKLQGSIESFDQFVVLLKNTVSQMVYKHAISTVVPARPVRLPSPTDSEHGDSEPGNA
Briefly: EMSA.

B1: MicC scaffold (structured_RNA)
RNA: UUUCUGUUGGGCCAUUGCAUUGCCACUGAUUUUCCAACAUAUAAAAAGACAAGCCCGAACAGUCGUCCGGGCUUUUUUU
As to B1, the binding result was “binds”.
